Assay results reported in patent publication US20160145322A1.

Target: G protein of RSV A/Long (ATCC Cat. No. VR-26), on virus (Respiratory syncytial virus A/Long) (UniProt P20895)
Assay: cell-based or functional assay

G protein of RSV A/Long (ATCC Cat. No. VR-26), on virus (Respiratory syncytial virus A/Long), sequence (P20895 whole entry): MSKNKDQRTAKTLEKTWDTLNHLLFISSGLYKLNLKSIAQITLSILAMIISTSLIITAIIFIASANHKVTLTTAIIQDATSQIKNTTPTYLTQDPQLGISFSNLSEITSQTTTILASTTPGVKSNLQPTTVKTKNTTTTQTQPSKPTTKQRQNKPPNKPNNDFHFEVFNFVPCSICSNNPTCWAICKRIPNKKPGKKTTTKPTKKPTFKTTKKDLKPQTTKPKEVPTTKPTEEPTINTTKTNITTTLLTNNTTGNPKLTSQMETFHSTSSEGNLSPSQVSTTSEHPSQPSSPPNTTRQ

B1: CR9505 (an antibody based on 131-2G, comprising the heavy and light chain variable region of 131-2G, as disclosed in WO 2009/055711) (antibody, from another filing, V domains shown)
VH: EVQLQQSGPELVKPGTSVKISCKASGYSFTGFTMNWVKQSHGKNLEWFGLINPFNGNTGYNQKFKGKATLTVDKSSSTAFMELLSLTSEDSAVYYCARSGKSYDYEAWFTYWGQGTLVTVSA
VL: DIVMTQTTLSLPVSLGNQASISCRSSQTIVHTNGNTYLEWYLQKPGQSPKLLIYKVSNRFSGVPDRFSGSGSGTDFILNISRVEAEDLGVYYCFQGSHVPFTFGSGTKLEIKR
**Q.** How did the Neutralization IC50, plaque reduction assay, RSV A/Long turn out when B1 was run?
**A.** The Neutralization IC50, plaque reduction assay, RSV A/Long was 0.018 µg/mL.
